In patent US20040248211A1, “ICAM-related protein” (priority 1992, published 2004):

Key:
[1] = biological target: T1, soluble ICAM-R (Homo sapiens, UniProt P32942); assay: ELISA binding to soluble ICAM-R coated onto plastic; conditions: serially diluted purified antibody; 50% maximal binding
T1 construct: made in house; host or cells: Sf-9 insect cells, recombinant baculovirus (pBBIII.ICAM-Rt1), purified on Lentil Lectin Sepharose
T1 sequence (P32942 30-485 limits assumed): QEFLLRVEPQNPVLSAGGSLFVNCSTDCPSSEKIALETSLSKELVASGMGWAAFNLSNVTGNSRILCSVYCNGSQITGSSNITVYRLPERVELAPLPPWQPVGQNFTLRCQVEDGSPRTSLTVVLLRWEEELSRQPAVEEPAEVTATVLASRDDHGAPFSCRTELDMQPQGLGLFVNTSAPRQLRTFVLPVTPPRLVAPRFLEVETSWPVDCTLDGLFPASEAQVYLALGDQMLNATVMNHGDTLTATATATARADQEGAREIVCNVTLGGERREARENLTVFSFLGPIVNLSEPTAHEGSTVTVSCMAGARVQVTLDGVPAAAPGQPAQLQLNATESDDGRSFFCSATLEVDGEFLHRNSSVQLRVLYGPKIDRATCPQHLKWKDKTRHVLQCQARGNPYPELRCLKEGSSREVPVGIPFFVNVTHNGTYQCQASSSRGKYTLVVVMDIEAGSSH
Method: Nine of the purified anti-ICAM-R monoclonal antibodies were diluted serially and assayed in an ELISA format for binding to a fixed amount of soluble ICAM-R (Example 9) coated onto plastic. The results of the assay are presented in Table 3 below wherein high affinity binding was defined as 50% maximal binding at a monoclonal antibody concentration of less than 1 μg/ml and low affinity binding was defined as 50% maximal binding at a monoclonal antibody concentration of greater than 1 μg/ml.

[2] = test system: PBMC responder and irradiated stimulator cells; assay: Alloantigen-induced lymphocyte proliferation; type: cell-based, human
Method: Monoclonal antibodies to ICAM-R were also tested for the ability to alter lymphocyte proliferation (as measured by ^3H-thymidine incorporation) in response to alloantigenic irradiated stimulator cells. Responder cells were prepared by obtaining PBMC from a normal donor using Histopaque centrifugation as described above. To prepare stimulator cells, PBMC from a second, unrelated donor were concurrently isolated and irradiated at 1500R by exposure to a gamma emitting cesium source. Two hundred thousand responder cells and 2×10^5 irradiated stimulator cells (suspended in culture medium) were then added to wells containing soluble or immobilized ICR-1.1, ICR-2.1, ICR-3.1, ICR-4.2, ICR-5.1, ICR-6.2, ICR-7.1, ICR-8.1, ICR-9.2, immobilized B-H9, immobilized p10.1, or soluble 515F (anti-rat CD18) antibody and incubated for 6 days at 37° C., 5% CO2. Lymphocyte proliferation (^3H-thymidine incorporation) was assessed in the last 18-24 hours of culture.

[3] = test system: Monocytes; assay: IL-8 release from monocytes; type: cell-based, human; conditions: wells coated 10 μg/ml
Method: Monocytes were isolated by elutriation from peripheral blood of normal donors. […] After blocking free sites, the cells were placed into the wells in medium. […] Those cells plated in wells treated with BSA plus or minus LPS were rounded and not spread. After 8 or 18 hours of incubation at 37° C., the medium was removed and assayed for IL-8 immunoreactivity. […] By 18 hours, IL-8 levels in media from ICR monoclonal antibody wells were much elevated over control levels. […] Similar experiments with monocytic cell lines (U937 and HL60) to determine if ICR monoclonal antibody can induce IL-8 release were conducted. U937 cells responded to each of the ICR monoclonal antibody treated wells by releasing IL-8 into the conditioned medium. […] No detectable morphological changes were detected with the U937 or HL60 cells.

[4] = test system: Monocytes; assay: MCP-1 release from monocytes; type: cell-based, human; conditions: for release of MCP-1 into conditioned medium: 8 and 18 hour time points
Method: Monocytes were isolated by elutriation from peripheral blood of normal donors. Plastic wells were coated with ICR-1.1, 2.1, 8.1 or albumin alone (10 μg/ml). After blocking free sites, the cells were placed into the wells in medium. After 1 hour in culture, the cells that were in the ICR Mab treated wells had flattened onto the substratum. Those cells plated in wells treated with BSA plus or minus LPS were rounded and not spread. After 8 or 18 hours of incubation at 37° C., the medium was removed and assayed for IL-8 immunoreactivity. […] By 18 hours, IL-8 levels in media from ICR monoclonal antibody wells were much elevated over control levels. ICR-1.1 induced levels increased ten times, ICR-2.1 induced levels were four times and ICR-8.1 induced levels were two times over the levels seen at the 8 hour time point. Similar experiments with monocytic cell lines (U937 and HL60) to determine if ICR monoclonal antibody can induce IL-8 release were conducted. U937 cells responded to each of the ICR monoclonal antibody treated wells by releasing IL-8 into the conditioned medium. […] No detectable morphological changes were detected with the U937 or HL60 cells.
Monocytes isolated and treated as described above were tested for release of MCP-1 at 8 and 18 hour time points. […] MCP-1 release elicited by ICR-1.1 peaked at 8 hours. Release from Mab ICR-2.1 and ICR-8.1 was not detected until 18 hours when it was 4-fold greater than the peak 1.1 induction level.

B1: ICR-8.1: anti-ICAM-R monoclonal antibody, IgG1, domain 1, ATCC HB 11232 (antibody, V domains shown)
VH: EIQLQQTGPELVKPGASVKISCKASGYSFTDCIILWVKQSHGKGLEWIGKINPYFGTTTYNLKFKGKATLTVDKSSSTAHMQLNSLTSEDSAVYYCARKEAYPDAMDYWGQGTSVTVSS
VL: DAVMTQTPLSLPVSLGDQASISCRSSQSLVHSNGDTYLHWYLQKPGQSPQLLIYKVSNRFSGVPDRFSGSGSGTDFTLKLSRVEAEDLGVYFCSQSTHVPYTFGGGTKLEIK
Affinity [1]: High (50% maximal binding at a monoclonal antibody concentration of less than 1 μg/ml)
Blockade of Lymphocyte Activation Alloantigen [2]: YES
alloantigen proliferation, immobilized antibody ([2]; 6 days): consistently reduced proliferation
alloantigen proliferation, soluble antibody ([2]; 6 days): inhibited alloantigen-stimulated proliferation
IL-8 level at 18 hours over the level at the 8 hour time point [3]: two times
release of MCP-1 into conditioned medium [4]: induced release of MCP-1
MCP-1 release at 18 hours relative to the peak ICR-1.1 induction level ([4]; not detected until 18 hours): 4 fold

B2: ICR-1.1: anti-ICAM-R monoclonal antibody, IgG2a, domain 1, ATCC HB 11053 (antibody, V domains shown)
VH: QVQLQQSGAELAKPGASVKMSCKASGYTFTVYWMHWVKQRPGQGLEWIGYINPNTDYTEYNQRFQDKATLTADKSSSTAYMQLSSLTSEDSAVYYCARWGGNSYGLDYWGQGTSVTVSS
VL: QIVLTQSPALMSASPGEKVTMTCSASSSVSYIYWYQQKPRSSPKPWIYLTSNLASGVPARFSGSGSGASYSLTISIMEAEDAATYYCQQWKSIPLTFGAGTKLELK
Affinity [1]: Low (50% maximal binding at a monoclonal antibody concentration of greater than 1 μg/ml)
Blockade of Lymphocyte Activation Alloantigen [2]: YES
alloantigen proliferation, immobilized antibody ([2]; 6 days): consistently reduced proliferation
IL-8 level at 18 hours over the level at the 8 hour time point [3]: ten times
time of peak MCP-1 release [4]: 8 h
release of MCP-1 into conditioned medium [4]: induced release of MCP-1
